The source of these data is PMC3540032, “Comprehensive Analysis and Identification of the Human STIM1 Domains for Structural and Functional Studies” (PLoS ONE, 2013).

The test addresses T1, hSTIM1 S340-M490 (CAD-containing construct) (human, UniProt Q13586 340-490).
T1 construct: also called the CAD; source: E. coli Rosetta (DE3), purified (IMAC, SEC, IEX, low salt SEC)
Nature of the test: SPR; Biacore T200; Orai1 peptide immobilised on a CM5 chip by ligand thiol coupling at 1000 RU; analytes injected at 10 µM; HBS-EP buffer (20 mM HEPES, pH 7.4, 150 mM NaCl, 3.4 mM EDTA, 0.005% Polysorbate 20), 30 µL/min. The following applies: both partners purified. On the technique in general: Surface plasmon resonance follows binding to a sensor surface in real time, without labels.

T1 sequence (Q13586 340-490): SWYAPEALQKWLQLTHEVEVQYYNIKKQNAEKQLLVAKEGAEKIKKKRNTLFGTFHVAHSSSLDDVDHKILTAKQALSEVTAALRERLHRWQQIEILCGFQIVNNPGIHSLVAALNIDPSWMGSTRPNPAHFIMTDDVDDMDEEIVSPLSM

B1: Orai1 C-terminal peptide with an extra N-terminal Cys (peptide)
peptide: CRSLVSHKTDRQFQELNELAEFARLQDQLDHRGDHPLTPGSHYA
notes: extra Cys added to the N-terminus for immobilisation via thiol coupling; The added Cys is coupled to the CM5 chip by thiol coupling, which leaves the C-terminal end free; also called Orai1 C-terminus; Orai1 C-terminal domain; source: synthetic peptide (Peptide 2.0), purified by SEC (Superdex Peptide)
As for B1, the binding result is on record as “binds”.
